# Article PMC4888461 (Biochemical Journal, 2016)
# Read-outs that look alike come from different tables or passages of the source.
# B1: His-tagged fl-Gremlin-1 (natural protein, human, UniProt O60565 25-184, looked up)
# chain: KKKGSQGAIPPPDKAQHNDSEQTQSPQQPGSRNRGRGQGRGTAMPGEEVLESSQEALHVTERKYLKRDWCKTQPLKQTIHEEGCNSRTIINRFCYGQCNSFYIPRHIRKEEGSFQSCSFCKPKKFTTMMVTLNCPELQPPTKKKRVTRVKQCRCISIDLD
# B2: BMP-2 (bone morphogenetic protein 2), wild type (ligand, UniProt P12643 283-396, looked up)
# chain: QAKHKQRKRLKSSCKRHPLYVDFSDVGWNDWIVAPPGYHAFYCHGECPFPLADHLNSTNHAIVQTLVNSVNSKIPKACCVPTELSAISMLYLDENEKVVLKNYQDMVVEGCGCR
# Assays:
# [1] = biological target: His-tagged ΔN-Gremlin-1 (human) (UniProt O60565); assay: BLI
# [2] = biological target: His-tagged ΔN-Gremlin-1 (human) (UniProt O60565); assay: BLI; remark: listed apart in the source
# [3] = biological target: His-tagged fl-Gremlin-1 (human) (UniProt O60565); assay: BLI
# [4] = biological target: His-tagged fl-Gremlin-1 (human) (UniProt O60565); assay: BLI; remark: listed apart in the source
# [5] = biological target: B2; assay: BLI
# SEC-MALS = biological target: the molecule itself; assay: SEC-MALS
# [6] = biological target: B2; assay: BLI; remark: listed apart in the source
# [7] = biological target: B2; assay: BLI; remark: listed apart in the source
# SEC-SAXS = biological target: the molecule itself; assay: SEC-SAXS
# His-tagged fl-Gremlin-1 [8] = biological target: B1; assay: BLI
# His-tagged fl-Gremlin-1 [9] = biological target: B1; assay: BLI; remark: listed apart in the source
molecule,measurement,setting,value
BMP-2 mutant # 1 (49 F → A) (ligand),Kd,[1],77.8 nM
same,Kd,[2],75.4 nM
same,Kd,[3],66.1 nM
BMP-2 mutant # 2 (66 L → R) (ligand),Kd,[4],32.5 nM
same,Kd,[2],44.7 nM
same,Kd,[3],45.9 nM
"BMP-2 mutant # 3 (49 F → A, 66 L → R) (ligand)",Kd,[1],175 nM
same,Kd,[2],95.9 nM
same,Kd,[3],30.4 nM
"BMP-2 mutant # 4 (33 V → T, 34 A → S) (ligand)",Kd,[2],176 nM
same,Kd,[3],47.2 nM
"BMP-2 mutant # 5 (98 V → T, 100 L → N) (ligand)",koff,[1],0.001 s⁻¹
same,Kd,[4],176 nM
same,Kd,[3],176 nM
"BMP-2 mutant # 6 (90 L→ Q, 92 L → R) (ligand)",Kd,[2],301 nM
"His-tagged ΔN-Gremlin-1 (domain or fragment, human, UniProt O60565 72-184, looked up) EVLESSQEALHVTERKYLKRDWCKTQPLKQTIHEEGCNSRTIINRFCYGQCNSFYIPRHIRKEEGSFQSCSFCKPKKFTTMMVTLNCPELQPPTKKKRVTRVKQCRCISIDLD",Kd,[5],16.7 nM
same,koff,[5],0.005 s⁻¹
same,stoichiometry N,SEC-MALS,2
same,Kd,[6],5.2 nM
"untagged ΔN-Gremlin-1 (domain or fragment, human, UniProt O60565 72-184, looked up) EVLESSQEALHVTERKYLKRDWCKTQPLKQTIHEEGCNSRTIINRFCYGQCNSFYIPRHIRKEEGSFQSCSFCKPKKFTTMMVTLNCPELQPPTKKKRVTRVKQCRCISIDLD",Kd,[7],8.5 nM
B1,stoichiometry N,SEC-SAXS,2
B2,Kd,His-tagged fl-Gremlin-1 [8],9 nM
same,koff,His-tagged fl-Gremlin-1 [8],0.0018 s⁻¹
same,Kd,His-tagged fl-Gremlin-1 [9],5.6 nM
